The record followed here is patent publication US20030100021A1.

Common to all, as to experiment: cell-based or functional assay
The target in test [1] is EpoR/LepR-F3-EpoR chimeric bait receptor (pSEL1-EpoR) (human; mouse) (UniProt P19235).
The target of test [2] is LepR-IRS1 bait receptor (pMET7 LepR-IRS1) (mouse; human) (UniProt P48356).
The target of test [3] is EpoR/LepR-F3-p53 chimeric bait receptor (pSEL1-p53) (human; mouse) (UniProt P19235).
Test [4] addresses βc/LepR-F3-ALK4CA + GM-CSFRα/LepR-F3-Smad3 heteromeric bait receptor (Example 8, transfection a) (mouse; human) (UniProt P32927).
In test [5] the target is βc/LepR-F3-Smad3 + GM-CSFRα/LepR-F3-ALK4CA heteromeric bait receptor (Example 8, transfection b) (mouse; human) (UniProt P32927).
The target of test [6] is LepR Y985/1077F mutant (pMET7 LepRY985/1077F) (mouse) (UniProt P48356).
LepR Y985/1077F mutant (pMET7 LepRY985/1077F) (mouse), sequence (P48356 other isoform, or with tags, fused parts or gaps mutant): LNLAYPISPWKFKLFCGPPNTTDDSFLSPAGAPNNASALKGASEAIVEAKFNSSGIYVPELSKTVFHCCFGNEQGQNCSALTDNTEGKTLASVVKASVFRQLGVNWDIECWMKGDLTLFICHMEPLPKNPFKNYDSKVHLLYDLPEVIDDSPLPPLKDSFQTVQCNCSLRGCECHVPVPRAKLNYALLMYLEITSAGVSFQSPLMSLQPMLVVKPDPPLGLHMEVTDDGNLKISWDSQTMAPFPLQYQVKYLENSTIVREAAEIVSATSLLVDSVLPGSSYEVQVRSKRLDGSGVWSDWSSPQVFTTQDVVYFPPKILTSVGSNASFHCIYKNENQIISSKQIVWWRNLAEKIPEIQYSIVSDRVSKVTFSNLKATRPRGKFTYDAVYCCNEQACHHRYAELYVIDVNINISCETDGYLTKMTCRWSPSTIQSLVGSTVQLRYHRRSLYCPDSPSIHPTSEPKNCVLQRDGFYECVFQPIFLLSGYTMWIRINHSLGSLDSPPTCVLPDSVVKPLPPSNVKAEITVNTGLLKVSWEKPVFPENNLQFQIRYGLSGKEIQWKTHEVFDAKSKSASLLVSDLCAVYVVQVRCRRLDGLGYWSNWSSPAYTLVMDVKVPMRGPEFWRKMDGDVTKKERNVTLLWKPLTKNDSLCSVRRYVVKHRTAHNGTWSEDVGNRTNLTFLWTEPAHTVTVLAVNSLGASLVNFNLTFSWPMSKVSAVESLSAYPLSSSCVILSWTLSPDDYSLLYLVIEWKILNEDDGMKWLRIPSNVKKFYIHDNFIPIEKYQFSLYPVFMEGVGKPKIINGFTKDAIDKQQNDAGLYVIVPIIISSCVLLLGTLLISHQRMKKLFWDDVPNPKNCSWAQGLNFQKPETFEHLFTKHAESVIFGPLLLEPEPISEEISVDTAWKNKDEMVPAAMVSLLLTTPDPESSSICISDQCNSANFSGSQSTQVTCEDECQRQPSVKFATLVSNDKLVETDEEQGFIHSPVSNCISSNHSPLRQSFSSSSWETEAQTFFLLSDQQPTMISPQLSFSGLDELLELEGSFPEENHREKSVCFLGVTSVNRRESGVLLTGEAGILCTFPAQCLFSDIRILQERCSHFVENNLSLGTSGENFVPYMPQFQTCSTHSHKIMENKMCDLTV

EpoR/LepR-F3-p53 chimeric bait receptor (pSEL1-p53) (human; mouse), sequence (P19235 other isoform, or with tags, fused parts or gaps mutant limits assumed, form in doubt): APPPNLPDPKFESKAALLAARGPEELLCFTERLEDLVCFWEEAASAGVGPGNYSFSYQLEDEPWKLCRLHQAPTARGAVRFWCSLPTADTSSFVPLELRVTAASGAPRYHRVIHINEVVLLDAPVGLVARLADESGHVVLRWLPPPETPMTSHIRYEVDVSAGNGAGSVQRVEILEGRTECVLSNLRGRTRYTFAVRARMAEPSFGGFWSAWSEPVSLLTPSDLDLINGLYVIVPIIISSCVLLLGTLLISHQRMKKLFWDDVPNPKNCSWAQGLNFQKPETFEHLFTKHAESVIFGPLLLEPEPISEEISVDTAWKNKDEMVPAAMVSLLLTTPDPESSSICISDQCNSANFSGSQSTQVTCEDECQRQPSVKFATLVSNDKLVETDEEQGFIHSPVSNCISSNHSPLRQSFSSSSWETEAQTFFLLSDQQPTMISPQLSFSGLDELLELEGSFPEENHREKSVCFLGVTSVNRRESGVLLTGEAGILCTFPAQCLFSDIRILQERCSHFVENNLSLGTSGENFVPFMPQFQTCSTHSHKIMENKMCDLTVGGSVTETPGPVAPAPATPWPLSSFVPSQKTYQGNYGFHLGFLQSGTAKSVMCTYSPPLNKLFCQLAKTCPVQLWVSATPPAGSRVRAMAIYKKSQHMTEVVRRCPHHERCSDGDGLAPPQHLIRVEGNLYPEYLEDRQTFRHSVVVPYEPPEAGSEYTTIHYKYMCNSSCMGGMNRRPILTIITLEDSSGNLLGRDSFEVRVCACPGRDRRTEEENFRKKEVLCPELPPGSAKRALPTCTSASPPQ
flag-gp130-SVT prey (pMG1-SVT; pMET7-flag-gp130-SVT), sequence (P40189 761-918, tags or fused parts left off): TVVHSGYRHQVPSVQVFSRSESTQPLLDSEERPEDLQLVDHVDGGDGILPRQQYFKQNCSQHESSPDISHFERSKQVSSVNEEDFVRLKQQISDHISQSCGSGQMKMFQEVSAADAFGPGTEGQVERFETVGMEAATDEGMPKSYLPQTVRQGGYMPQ
EpoR/LepR-F3-EpoR chimeric bait receptor (pSEL1-EpoR) (human; mouse), sequence (P19235 other isoform, or with tags, fused parts or gaps mutant limits assumed, form in doubt): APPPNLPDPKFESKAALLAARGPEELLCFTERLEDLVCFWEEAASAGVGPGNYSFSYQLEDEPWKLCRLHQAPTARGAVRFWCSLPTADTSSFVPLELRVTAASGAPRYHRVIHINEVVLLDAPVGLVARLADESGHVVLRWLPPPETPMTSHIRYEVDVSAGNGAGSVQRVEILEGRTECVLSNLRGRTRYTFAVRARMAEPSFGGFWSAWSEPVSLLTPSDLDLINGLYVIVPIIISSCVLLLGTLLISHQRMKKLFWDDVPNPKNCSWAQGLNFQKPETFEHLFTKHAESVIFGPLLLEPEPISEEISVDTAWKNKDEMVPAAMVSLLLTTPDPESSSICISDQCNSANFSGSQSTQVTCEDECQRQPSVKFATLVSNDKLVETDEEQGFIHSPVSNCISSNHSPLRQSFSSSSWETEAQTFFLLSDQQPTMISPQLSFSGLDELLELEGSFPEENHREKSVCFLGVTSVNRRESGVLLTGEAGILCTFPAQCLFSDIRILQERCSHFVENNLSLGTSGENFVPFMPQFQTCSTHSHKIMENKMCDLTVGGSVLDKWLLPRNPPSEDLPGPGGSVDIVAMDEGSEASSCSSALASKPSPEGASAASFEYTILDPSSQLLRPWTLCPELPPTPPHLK

With “flag-gp130-CIS prey (pMG1-CIS) (from UniProt P40189 761-918; Q62225 2-257)”, in test [1], the luciferase activity (rPAP1-luci reporter), fold induction, erythropoietin turned out to be 6.2 fold and the luciferase activity (rPAP1-luci reporter), fold induction, erythropoietin plus forskolin is 10.5 fold.

“flag-gp130-GRB2S prey (pMG1-GRB2S) (from UniProt P40189 761-918; P62993 60-158)” gave a luciferase activity (rPAP1 promoter), fold induction, leptin co-stimulated with forskolin in test [2] of 2.5 fold.

Take “flag-gp130-SVT prey (pMG1-SVT; pMET7-flag-gp130-SVT) (from UniProt P40189 761-918; P03070 261-708)”: in test [3], the luciferase activity (rPAP1-luci reporter), fold induction, erythropoietin is 9.4 fold and the luciferase activity (rPAP1-luci reporter), fold induction, erythropoietin plus forskolin came out at 14.6 fold.

In test [2], “flag-gp130-VavS prey (pMG1-VavS) (from UniProt P40189 761-918; P15498 259-789)” yielded a luciferase activity (rPAP1 promoter), fold induction, leptin of 5.2 fold and a luciferase activity (rPAP1 promoter), fold induction, leptin co-stimulated with forskolin of 12 fold.

On to “pMG2-Smad4 prey (flag-gp130 with 6 STAT recruitment sites fused to human Smad4) (from UniProt Q13485 4-552)”, for which, in test [4], the luciferase activity (rPAP1 promoter), fold induction, GM-CSF amounted to 3 fold and the luciferase activity (rPAP1 promoter), fold induction, GM-CSF co-stimulated with forskolin turned out to be 37 fold. Also, in test [5], the luciferase activity (rPAP1 promoter), fold induction, GM-CSF was determined as 9 fold and the luciferase activity (rPAP1 promoter), fold induction, GM-CSF co-stimulated with forskolin stood at 71 fold.

In test [6], “recombinant human leptin (R&D systems) (from UniProt P41159 22-167) (ligand)” returned a luciferase activity (rPAP1-luci reporter), fold induction, leptin of 33.2 fold and a luciferase activity (rPAP1-luci reporter), fold induction, leptin co-stimulated with forskolin of 37.6 fold.
